{"source": "patent US20240317834A1", "about": "“COMPOSITIONS AND METHODS FOR NEUROLOGICAL DISEASES” (CODA BIOTHERAPEUTICS, INC., priority 2020, published 2024)", "molecules": {"B1": {"name": "CODA1140: engineered chimeric LGIC receptor, R101F, L131N, S172D in SEQ ID NO: 33 (protein)", "chain": "MRCSPGGVWLALAASLLHVSLQGEFQRKLYKELVKNYNPLERPVANDSQPLTVYFSLSLLQIMDVDEKNQVLTTNIWLQMSWTDHYLQWNVSEYPGVKTVFFPDGQIWKPDILLYNSADERFDATFHTNVNVNSSGHCQYLPPGIFKSSCPMDLKNFPMDVQTCKLKFGSWDYGGWSLDLQMQEADISGYIPNGEWDLVGIPGKRSERFYECCKEPYPDVTFTVTMRRRMGYYLIQMYIPSLLIVILSWISFWINMDAAPARVGLGITTVLTMTTQSSGSRASLPKVSYVKAIDIWMAVCLLFVFSALLEYAAVNFVSRQHKELLRFRRKRRHHKSPMLNLFQEDEAGEGRFNFSAYGMGPACLQAKDGISVKGANNSNTTNPPPAPSKSPEEMRKLFIQRAKKIDKISRIGFPMAFLIFNMFYWIIYKIVRREDVHNQ", "modifications": "synthetic sequence of chimeric LGIC"}}, "type_in_all_cases": "cell-based", "key": {"[1]": {"tested_on": "rat hippocampal neurons", "assay": "Evoked rheobase shift in rat hippocampal neurons (current clamp)", "experimental": "(§1) For manual patch clamp experiments, Cells plated on coverslips were visualized at 10× and 40× on an inverted fluorescence microscope (Olympus). Recordings were made with an Axopatch 200B amplifier and Digidata 1550B (Molecular Devices) at RT using 3-6 MOhm glass patch electrodes (Sutter, BF150-86-10). Unless otherwise stated, recordings were made in extracellular solution (ECS) containing: 140 mM sodium chloride, 4 mM potassium chloride, 1 mM magnesium chloride, 2 mM calcium chloride, 10 mM HEPES, and 10 mM D-(+)-glucose (pH=7.3 with sodium hydroxide, osmolarity=305−315 mOsm). An 8-line reservoir (AutoMate Scientific) in combination with an 8-channel zero-dead-volume perfusion pencil (AutoMate Scientific) was used for perfusion. Data was acquired using pClamp software (Molecular Devices). Traces were either analyzed in Clampfit (Molecular Devices) or using custom Python code. Plotting and statistics were performed in GraphPad Prism.\nNo holding current was applied to the membrane for cells included in the final datasets. Data acquisition settings and analysis methods were the same as for the DRG rheobase experiments."}, "[2]": {"tested_on": "Lenti-X 293T cells", "assay": "YFP fluorescence quenching anion reporter plate reader assay of engineered receptors stimulated with acetylcholine or a non-native ligand", "method_in_brief": "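YFP quench was followed for about 1 min 43 s after ligand delivered in iodide-based ECS, pH 7.2. Values are end-of-read fluorescence (last 10 s) divided by the pre-ligand baseline (15 s). Cells were LX293T, transfected with receptor DNA a day before the assay.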"}, "[3]": {"tested_on": "rat hippocampal neurons", "assay": "Spontaneous firing rate of rat hippocampal neurons (current clamp)", "experimental": "as §1, with “Plotting and statistics were performed in GraphPad Prism.” left out\nSpontaneous activity was recorded in gapfree mode, in the presence and absence of a compound. […] For both methods, minimum height, average height, maximum height were measured and frequency was calculated as the number of events in the epoch divided by the length of time of the epoch. For Clampfit, the resting membrane potential was measured at 3 points between events and averaged for each epoch. […] For both methods, membrane potential was corrected for the calculated liquid junction potential. […]"}}}
{"molecule": "B1", "values": [{"measurement": "Rheobase Shift Evoked; Rat Hippocampal Neurons, +CNL002 @ EC90", "setting": "[1]; +CNL002 @ EC90", "result": "296.9 ± 72.65", "unit": "pA"}, {"measurement": "Rheobase Shift Evoked; Rat Hippocampal Neurons, Baseline", "setting": "[1]; Baseline, no ligand", "result": "40.63 ± 10.50", "unit": "pA"}, {"measurement": "YFP fluorescence quenching using CNL001", "setting": "[2]; 1 nM CNL001, first column", "result": 52.592, "unit": "%"}, {"measurement": "YFP fluorescence quenching using CNL001", "setting": "[2]; 1 nM CNL001, second column", "result": 61.248, "unit": "%"}, {"measurement": "YFP fluorescence quenching using CNL002", "setting": "[2]; 1 nM CNL002", "result": 0.337, "unit": "%"}, {"measurement": "YFP fluorescence quenching using Varenicline", "setting": "[2]; 3 nM var, first column", "result": "−6.169"}, {"measurement": "YFP fluorescence quenching using Varenicline", "setting": "[2]; 3 nM var, second column", "result": "−10.445"}, {"measurement": "YFP fluorescence quenching using CNL001", "setting": "[2]; 10 nM CNL001, first column", "result": 71.678, "unit": "%"}, {"measurement": "YFP fluorescence quenching using CNL001", "setting": "[2]; 10 nM CNL001, second column", "result": 71.881, "unit": "%"}, {"measurement": "YFP fluorescence quenching using CNL002", "setting": "[2]; 10 nM CNL002", "result": 59.894, "unit": "%"}, {"measurement": "YFP fluorescence quenching using Varenicline", "setting": "[2]; 30 nM var, first column", "result": "−9.679"}, {"measurement": "YFP fluorescence quenching using Varenicline", "setting": "[2]; 30 nM var, second column", "result": "−10.878"}, {"measurement": "YFP fluorescence quenching using CNL001", "setting": "[2]; 50 nM CNL001, first column", "result": 73.807, "unit": "%"}, {"measurement": "YFP fluorescence quenching using CNL001", "setting": "[2]; 50 nM CNL001, second column", "result": 75.649, "unit": "%"}, {"measurement": "YFP fluorescence quenching using CNL002", "setting": "[2]; 50 nM CNL002", "result": 76.501, "unit": "%"}, {"measurement": "YFP fluorescence quenching using ABT-126", "setting": "[2]; 50 nM abt", "result": "−7.87", "unit": "%"}, {"measurement": "YFP fluorescence quenching using CNL001", "setting": "[2]; 100 nM CNL001, first column", "result": 76, "unit": "%"}, {"measurement": "YFP fluorescence quenching using CNL001", "setting": "[2]; 100 nM CNL001, second column", "result": 76.329, "unit": "%"}, {"measurement": "YFP fluorescence quenching using CNL002", "setting": "[2]; 100 nM CNL002", "result": 79.03, "unit": "%"}, {"measurement": "YFP fluorescence quenching using ABT-126", "setting": "[2]; 100 nM abt", "result": "−5.35", "unit": "%"}, {"measurement": "YFP fluorescence quenching using ABT-126", "setting": "[2]; 300 nM abt", "result": "−3.67", "unit": "%"}, {"measurement": "YFP fluorescence quenching using Varenicline", "setting": "[2]; 300 nM var, first column", "result": "−9.572"}, {"measurement": "YFP fluorescence quenching using Varenicline", "setting": "[2]; 300 nM var, second column", "result": "−8.873"}, {"measurement": "YFP fluorescence quenching using Varenicline", "setting": "[2]; 500 nM var, first column", "result": "−14.656"}, {"measurement": "YFP fluorescence quenching using Varenicline", "setting": "[2]; 500 nM var, second column", "result": "−11.304"}, {"measurement": "YFP fluorescence quenching using CNL001", "setting": "[2]; 1 uM CNL001, first column", "result": 76.168, "unit": "%"}, {"measurement": "YFP fluorescence quenching using CNL001", "setting": "[2]; 1 uM CNL001, second column", "result": 74.076, "unit": "%"}, {"measurement": "YFP fluorescence quenching using CNL002", "setting": "[2]; 1 uM CNL002", "result": 82.85, "unit": "%"}, {"measurement": "YFP fluorescence quenching using ABT-126", "setting": "[2]; 1 uM abt", "result": 3.64, "unit": "%"}, {"measurement": "YFP fluorescence quenching using Varenicline", "setting": "[2]; 1 uM var, first column", "result": "−13.996"}, {"measurement": "YFP fluorescence quenching using Varenicline", "setting": "[2]; 1 uM var, second column", "result": "−16.128"}, {"measurement": "YFP fluorescence quenching using ABT-126", "setting": "[2]; 10 uM abt", "result": 5.91, "unit": "%"}, {"measurement": "percent quench of YFP fluorescence, 10 uM ach", "setting": "[2]; acetylcholine 10 uM", "result": "−20.07", "unit": "%"}, {"measurement": "percent quench of YFP fluorescence, 30 uM ach", "setting": "[2]; acetylcholine 30 uM", "result": "−16.92", "unit": "%"}, {"measurement": "percent quench of YFP fluorescence, 100 uM ach", "setting": "[2]; acetylcholine 100 uM", "result": "−25.8", "unit": "%"}, {"measurement": "percent quench of YFP fluorescence, 300 uM ach", "setting": "[2]; acetylcholine 300 uM", "result": "−11.21", "unit": "%"}, {"measurement": "percent quench of YFP fluorescence, 1 mM ach", "setting": "[2]; acetylcholine 1 mM", "result": 9.02, "unit": "%"}, {"measurement": "percent quench of YFP fluorescence, 3 mM ach", "setting": "[2]; acetylcholine 3 mM", "result": 45, "unit": "%"}, {"measurement": "Firing Rate Spontaneous; Rat Hippocampal Neurons, +CNL002 @ EC90", "setting": "[3]; +CNL002 @ EC90", "result": "0.71 ± 0.29", "unit": "Hz"}, {"measurement": "Firing Rate Spontaneous; Rat Hippocampal Neurons, Baseline", "setting": "[3]; Baseline, no ligand", "result": "3.29 ± 0.75", "unit": "Hz"}]}
